# Reference: the DeepSol protein solubility set
# Assay: soluble on expression in E. coli; label from the status in PepcDB or PDB records
row,Sequence,soluble on expression in E. coli
1,AAPGKPTIAWGNTKFAIVEVDQAATAYNNLVKVKNAADVSVSWNLWNGDTGTTAKILLNGKEAWSGPSTGSSGTANFKVNKGGRYQMQVALCNADGCTASDATEIVVADTDGSHLAPLKEPLLEKNKPYKQNSGKVVGSYFVEWGVYGRNFTVDKIPAQNLTHLLYGFIPICGGNGINDSLKEIEGSFQALQRSCQGREDFKVSIHDPFAALQKAQKGVTAWDDPYKGNFGQLMALKQAHPDLKILPSIGGWTLSDPFFFMGDKVKRDRFVGSVKEFLQTWKFFDGVDIDWEFPGGKGANPNLGSPQDGETYVLLMKELRAMLDQLSAETGRKYELTSAISAGKDKIDKVAYNVAQNSMDHIFLMSYDFYGAFDLKNLGHQTALNAPAWKPDTAYTTVNGVNALLTQGVKPGKIVVGTAMYGRGWTGVNGYQNNIPFTGTATGPVKGTWENGIVDYRQIASQFMSGEWQYTYDATAEAPYVFKPSTGDLITFDDARSVQAKGKYVLDKQLGGLFSWEIDADNGDILNSMNASLGNSAGVQLEHHHHHH,soluble
2,MLIRQVTMEDLEDIIRIENDNFSAEEAATSQALKERIEVIADTFLVAEQDGQIAGYVEGPVINSRYLTDDLFHKVKPNQEKSGYIAVTSLSVDKAFQKQGVGTTLLAALKDLTVAQNRLGIHLTCHDYLISYYEMNGFSNEGLSESTHGGTVWYNMIWENPKI,not soluble
3,MIEYAALKFNVVSDPMSETAKKVIVGMSGGVDSSVSAWLLQQQGYQVEGLFMKNWEEDDGEEYCTAAADLADAQAVCDKLGIELHTVNFAAEYWDNVFELFLAEYKAGRTPNPDILCNKEIKFKAFLEFAAEDLGADYIATGHYVRRADVDGKSRLLRGLDSNKDQSYFLYTLSHEQIAQSLFPVGELEKPQVRKIAEDLGLVTAKKKDSTGICFIGERKFREFLGRYLPAQPGKIITVDGDEIGEHQGLMYHTLGQRKGLGIGGTKEGTEEPWYVVDKDVENNILVVAQGHEHPRLMSVGLIAQQLHWVDREPFTGTMRCTVKTRYRQTDIPCTVKALDDDRIKVIFDEPVAAVTPGQSAVFYNGEVCLGGGIIEQRLPLPV,not soluble
4,MEKSVSVILLAGGQGKRMKMSMPKQYIPLLGQPIALYSFFTFSRMPEVKEIVVVCDPFFRDIFEEYEESIDVDLRFAIPGKERQDSVYSGLQEIDVNSELVCIHDSARPLVNTEDVEKVLKDGSAVGAAVLGVPAKATIKEVNSDSLVVKTLDRKTLWEMQTPQVIKPELLKKGFELVKSEGLEVTDDVSIVEYLKHPVYVSQGSYTNIKVTTPDDLLLAERILSEDS,soluble
5,MGSDKIHHHHHHMQNLDALLIFARVAEMTSFTRAAESLGIQKGRVSMVIRKLERDVGVALLHRTTRSVQLTEDGRAFYSRARDLLAEVQELQSMFSGNGTRLRGRLRVDMPTELARSVVVPALPQLMAAHPELELELSSTDRRVDLVQEGFDCVIRLGPITDDTLIARPLGKLRMTNAASPGYLARYGIPHTLDDLRTQGHRMVHYTLTLGARHPGWEYPNGDGYASLPLPSAMQVNSVQTYHAAGLAGIGLIQAGYSALAHHIESGALVEVLPDLRPEPLAASLVVAHRRNLSPRVRAFMDWIEGVLAPYLD,not soluble
6,MAEASPQPGRYFCHCCSVEIVPRLPDYICPRCESGFIEELPEETRNTENGSAPSTAPTDQNRQPFENVDQHLFTLPQGYSQFAFGIFDDSFEIPTFPPGAQADDGRDPESRREREHQSRHRYGARQPRARLTARRATGRHEGVPTLEGIIQQLVNGIISPAAVPSLGLGPWGVLHSNPMDYAWGANGLDTIITQLLNQFENTGPPPADKEKIQALPTVPVTEEHVGSGLECPVCKEDYALGESVRQLPCNHLFHDSCIVPWLEQHDSCPVCRKSLTGQNTATNPPGLTGVGFSSSSSSSSSSSPSNENATSNS,soluble
7,MKDLIKVQQKLIPDLIDKMYRRFYILSTISQNQPVGRRSLSEHMDMTERVLRSETDMLKKQELIRVKPTGMEITNEGTEVLAQLGEYFNVYSDDHKLASAIKDKFHIKDVHVIPGDSDSNRTVKREMGQQAGQLLEGILYEDAIVSVTGGSTMACVSESIHLLPFNVFFVPARGGLGENVVYQANTIASSMAQQAGGYYTTLYVPDNVSESTYDTLMLEPSVMHTLDKIKQANITIHGIGDALKMAHRRQSSQNVIDNLQHHQAVGEAFGYYFDAQGQIVHKVKTIGLQLEDLENKDFIFAVAGGQSKGEAIKAYLSIAPENTVLITDEAAAKVILQ,not soluble
8,MWQKSALTTVSISLPQQAVYSGMRYEVNISAAKCDGTGVTFGTINNCTITLSLPAGASIITRHFSADL,not soluble
9,MKLFRVVKRGYYISYAILDNSTIIRLDEDPIKALMRYSENKEVLGDRVTGIDYQSLLKSFQINDIRITKPIDPPEVWGSGISYEMARERYSEENVAKILGKTIYEKVYDAVRPEIFFKATPNRCVGHGEAIAVRSDSEWTLPEPELAVVLDSNGKILGYTIMDDVSARDLEAENPLYLPQSKIYAGCCAFGPVIVTSDEIKNPYSLDITLKIVREGRVFFEGSVNTNKMRRKIEEQIQYLIRDNPIPDGTILTTGTAIVPGRDKGLKDEDIVEITISNIGTLITPVKKRRKIT,soluble
10,ELKDLQKDEKFWTESSQFKVSVPVGWDINHKEVCFEIGNEQNHTLICGRSGSGKSNFLHVLIQNLAFYYAPNEVQLFLLDYKEGVEFNAYTDPNILEHARLVSVASSVGYGMSFLNWLCKEMQERANLFKQFNVKDLSDYRKHGEIPRLIVVIDEFQVLFSDNKSTKAVEGHLNTLLKKGRSYGVHLILATQTMRGTDINRSIMAQIANRIALSMDAEDSNSILGDDAACELVRPEGIFNNNGGHQKHHTKMSIPKAP,not soluble
11,MRLAVLIDADNAKADAISDLLAEVSKFGVATVKRAYGDWTTTNLQGWKKQLHKYAIQPMQQFSYTRGKNSTDASMIIDGMDLLYTGNFDGFCIVSSDCDFTRLATRFREAGLSVYGFGEKKTPEPFVAACDRFIFTEILGKGETQEKPAATGKADESAASKELLKLLRKAVAAVSGEDGWASLSNLGSHISKIRPSFDSRNYGYSKLSTLVKNLDIFETRMVPSADKLHTDVFLRLKDGKLEHHHHHH,not soluble
12,MESLGSIALFVLVTETRSFTLAGKRLGISSSGVGKSVGRLEESLGVRLFHRSTRSIALTLEGSIFLDRCRRILSELDAAQLELSNARDLPKGRLRISVPLVFGLVMPVVIQFMRTYPEIELDIDFSDRMVDIIDEGFDVVLRTGEPSDSRLMSKRMGSFQLCIVGSPDYFARHGLPEQPADLIHHACLQHKFPSTGKFEHWPLRREPGSEDFELPQTMVCNTTEVLVEVARAGLGITCLPDFMLASAIRKGELIPILSDYTLHTGSFRLFWASSKHLSVRLRVFIDFMHANLFAPARVGQEGRS,not soluble
13,MQQFATLSLASLLMLGTFTAFAAENGDAPASGWHIDDSATKGASGQQGMFDGVRLTEQQRQQMRDLMHQSRQDKPAFNTEDVKAMHKLVTAETFDEAAVRAQITRMMSVQIERQIQMTRVRNQMYNLLTPAQKEILELKHKQRMKEMQQQISMFNQMVAPSSGTTNHTETDSPELEHHHHHH,soluble
14,MAHHHHHHMANGVTANSMRVSVKAPDLGAFPLDHYRECKSEIEEYYTCLRSNDYVTPMCREQVRAYLQCRMDRGLMKPADIEGFGIPETEFVPMRQHRADIRQQWLRQKMNQVTAVWESYRRDDLNVPDGYERPRGSDSGGRPQPLPGETNKT,not soluble
15,MKVALGGTFEPLHEGHKKLIDVAIKLGGRDITIGVTSDRMARARIRSVLPFAIRAENVKRYVMRKYGFEPEIVKITNPYGKTLDVDFEYLVVSPETYEMALKINQKREELGKRKITIVKVDWMMAEDGKPISSTRIKRGEIDRYGGII,soluble
16,MGHHHHHHSHGDAAPEALEFEYDLAEPPEKVWRALTVPELLAAWMMPNDIRPEIGNRFAFAGTEAAIECEILDAEPERLLRYSWRQQPGDAARQDPLDSVVTFTLARTVSGGTHLRIVHDGFGGKAMPAVAMASG,not soluble
17,KVQSTFAKYSRVRSMTGMTGAEAAKRLLNSQGIYDVQVRKVAGNLTDHYDPRNKTLNLSESVYDSPSVAAIGVAAHECGHAIQDNTEYAPLKIRGAIVPVVNIGTQLSWPM,not soluble
18,AASPPTEEAVVATEPLTREDLIAYLASGCKSKEKWRIGTEHEKFGFEVNTLRPMKYDQIAELLNSIAERFEWEKVMEGDKIIGLKQGKQSISLEPGGQFELSGAPLETLHQTCAEVNSHLYQVKAVAEEMGIGFLGMGFQPKWRREDIPTMPKGRYDIMRNYMPKVGSLGLDMMLRTCTVQVNLDFSSEADMIRKFRAGLALQPIATALFANSPFTEGKPNGFLSMRSHIWTDTDKDRTGMLPFVFDDSFGFEQYVDYALDVPMYFAYRNGKYVDCTGMTFRQFLAGKLPCLPGELPTYNDWENHLTTIFPEVRLKRYMEMRGADGGPWRRLCALPAFWVGLLYDEDVLQSVLDLTADWTPAEREMLRNKVPVTGLKTPFRDGLLKHVAEDVLKLAKDGLERRGYKEVGFLNAVTEVVRTGVTPAENLLEMYNGEWGQSVDPVFQELLY,soluble
19,ANNGAHRDMDLNTFIASAEAIAPYLHSFVSAGWESAGNPAAQLLSALRPIGIEAEQAMFAATQGVNTHKGMIFILGLICGSVGWLKANQLKIDAQHIGETIRQACQFLVIDELKAKRDCEPETAGERIYRQYGLTGARGEAASGLAMVMQHALPAYQACLTKGASTEQALWHTLLVLMANNNDSNLVSRGGLAGLHFVQEQAQQLLAKGGFLYQEIEQALTALDSVLIEKHLS,not soluble
20,MKLSRRSFMKANAVAAAAAAAGLSVPGVARAVVGQQEAIKWDKAPCRFCGTGCGVLVGTQQGRVVACQGDPDAPVNRGLNCIKGYFLPKIMYGKDRLTQPLLRMKNGKYDKEGEFTPITWDQAFDVMEEKFKTALKEKGPESIGMFGSGQWTIWEGYAASKLFKAGFRSNNIDPNARHCMASAVVGFMRTFGMDEPMGCYDDIEQADAFVLWGANMAEMHPILWSRITNRRLSNQNVTVAVLSTYQHRSFELADNGIIFTPQSDLVILNYIANYIIQNNAINQDFFSKHVNLRKGATDIGYGLRPTHPLEKAAKNPGSDASEPMSFEDYKAFVAEYTLEKTAEMTGVPKDQLEQLAQLYADPNKKVISYWTMGFNQHTRGVWANNLVYNLHLLTGKISQPGCGPFSLTGQPSACGTAREVGTFAHRLPADMVVTNEKHRDICEKKWNIPSGTIPAKIGLHAVAQDRALKDGKLNVYWTMCTNNMQAGPNINEERMPGWRDPRNFIIVSDPYPTVSALAADLILPTAMWVEKEGAYGNAERRTQFWRQQVQAPGEAKSDLWQLVQFSRRFKTEEVWPEDLLAKKPELRGKTLYEVLYATPEVSKFPVSELAEDQLNDESRELGFYLQKGLFEEYAWFGRGHGHDLAPFDDYHKARGLRWPVVNGKETQWRYSEGNDPYVKAGEGYKFYGKPDGKAVIFALPFEPAAEAPDEEYDLWLSTGRVLEHWHTGSMTRRVPELHRAFPEAVLFIHPLDAKARDLRRGDKVKVVSRRGEVISIVETRGRNRPPQGLVYMPFFDAAQLVNKLTLDATDPLSKETDFKKCAVKLEKV,not soluble
21,MGSDKIHHHHHHMRHTAVLLISCPDQRGLVAAIADFLLAHRANILHADQHQDAELKLFLMRVEWDLAGFNLDLRDFATAFQPIAERFGMTWRLAESSRKPRMAVFVSKFDHCLADLLYRYQSGELHCELPIILSNHEDTRWLADAYRVPYQHMAVTKESKHETEQIQLAILRDQKIDFIVLARYMQVLSGDFIRHFPNRIINIHHSFLPAFHGAKPYHRAFERGVKLIGATAHYVTETLDDGPIIEQDVARISHRDHIDDLIHKGADLEKVVLSRAVKWHLDNRVLVYANKTVVFD,not soluble
